The series is described as follows: soluble on expression in E. coli; label from the status in PepcDB or PDB records.
Take “MSLSEKKVHLRLRKELSVPIAVVENESLAQLSYEEESQASLMDISMEQQQLRLHSHFDNSKVFTENNRYIVKTLQTDYSSGFSNDDELNGYIDMQIGYGLVNDHKKVYIWNIHSTQKDTPYITVPFRSDDNDEIAVAPRCILTFPATMDESPLALNPNDQDETGGLIIIKGSKAIYYEDINSINNLNFKLSEKFSHELELPINSSGGEKCDLMLNCEPAGIVLSTNMGRIFFITIRNSMGKPQLKLGKLLNKPFKLGIWSKIFNTNSSVVSLRNGPILGKGTRLVYITTNKGIFQTWQLSATNSHPTKLIDVNIYEAILESLQDLYPFAHGTLKIWDSHPLQDESSQLFLSSIYDSSCNETYYILSTIIFDSSSNSFTIFSTYRLNTFMESITDTKFKPKIFIPQMENANDTNEVTSILVMFPNAVVITQVNSKLDSSYSMRRKWEDIVSLRNDIDIIGSGYDSKSLYVLTKQMGVLQFFVKENEETNSKPEVGFVKSHVDQAVYFSKINANPIDFNLPPEISLDQESIEHDLKLTSEEIFHSNGKYIPPMLNTLGQHLSVRKEFFQNFLTFVAKNFNYKISPELKLDLIEKFEILNCCIKFNSIIRQSDVLNDIWEKTLSNYNLTQNEHLTTKTVVINSPDVFPVIFKQFLNHVVFVLFPSQNQNFKLNVTNLINLCFYDGILEEGEKTIRYELLELDPMEVDTSKLPWFINFDYLNCINQCFFDFTFACEEEGSLDSYKEGLLKIVKILYYQFNQFKIWINTQPVKSVNANDNFININNLYDDNHLDWNHVLCKVNLKEQCIQIAEFYKDLSGLVQTLQTLDQNDSTTVSLYETFFNEFPKEFSFTLFEYLIKHKKLNDLIFRFPQQHDVLIQFFQESAPKYGHVAWIQQILDGSYADAMNTLKNITVDDSKKGESLSECELHLNVAKLSSLLVEKDNLDINTLRKIQYNLDTIDAEKNISNKLKKGEVQICKRFKNGSIREVFNILVEELKSTTVVNLSDLVELYSMLDDEESLFIPLRLLSVDGNLLNFEVKKFLNALVWRRIVLLNASNEGDKLLQHIVKRVFDEELPKNNDFPLPSVDLLCDKSLLTPEYISETYGRFPIDQNAIREEIYEEISQVETLNSDNSLEIKLHSTIGSVAKEKNYTINYETNTVEYEGHHHHHH”: the “soluble on expression in E. coli” value is “soluble”.
As for “EVQLVESGGGLVQPGRSLRLSCAASGFTFDDYAMHWVRQAPGKGLEWVSGISWNSGSIGYADSVKGRFTISRDNAKNSLYLQMNSLRAEDTAVYYCARGRGFHYYYYGMDIWGQGTTVTVSSASTKGPSVFPLAPSSKSTSGGTAALGCLVKDYFPEPVTVSWNSGALTSGVHTFPAVLQSSGLYSLSSVVTVPSSSLGTQTYICNVNHKPSNTKVDKKVEPK”, the “soluble on expression in E. coli” value is “soluble”.
The same measure for “MSLDDYTVRVRVPGGEWKDLFEYNVQVDMDRVQDASMVQFDMGSLVEVMVKKNNGTIHEVDIRPQVNDIRYVQYKNVITFMLDKPRYLSVEFNGDRLHNLHVFANPMETETYSKEEKGVMYFGPGVHRPKDLPNNQIRIPSNTTVYLAPGAVVKAKLWVDKAENVRIVGRGILDHPIRGIEITDSKNVVVDGITVINPDHYTVFGGGSVGVTIRNLKSFSCKGWSDGIDMMCCHDVLIDNVFMRNSDDCIALYNHRWNWWGGSDNITVQNSILWADIAHPINVGGHGDPESLIGETIENLIFRNIDILEHDEDDVPYQGCMAIDAGDRNRVKNILFEDIRVESIQEGKLFHINIRFNPKYDKQPGQSIDGVTFRNITYNGVGENPSLIKGLDKERMVRNITFENVVVNGEKIKDLKGFITNEYIEGIKIKEGHHHHHH”: “not soluble”.
For “MGEHKNCKCNRWVISLQAAFDRDDFEKLFRKAVQSITEEEFQRIPEFRHREDALACLFGRLLLRHSAQKFSGEPWNTIRFERTERGKPFLAVPADTTFGLNVSHQGDYVAFASSCSSKVGVDVMRLDNERNNKTADEYINSMAKSASPEELRMMRSQPTEAMKMTMFYRYWCLKEAILKATGVGIMKDLNSLDFRVNLQDRYRPGAFVTSTTVLEDGRLQDQWIFEETFVDAKHSAAVCKEKKLPRECVFRQDPEAKIFFSKITFESLLENAEITNPMPNNAADIFEEFMAKPKKTF”, the “soluble on expression in E. coli” value is listed as “not soluble”.
Under “MDHEIPVRIVDNQEYMKVVRSILEEGKEVPLVVTGNSMMPFLIDRRDQVLIKRIERPLKKGDIAFFQRENGQYIMHRIHFMRKDDRTGENQFYFIGDGQKNIEGPIKETRIFGVITGVLRKGKYLDEHTFTWRFFENIWRYVIPFRPLIIKIYSLFKR” stands “not soluble”.
Consider “SILELAEYTYFPPTLMASLILKNCDFSRKSINWLFKHLDCIENRRLRKEVRKALNADYFFSPRAHEMQCRKGEMGEEIVRKWLDDREIAYCTEAEIRAKGDGKTPDFVLSNPIFIEDHMVSWIESKALFGDDFEHKHYAKKQFREYADIFGEGMVVYWYGFLEDLSSEDEGYLIKDYRFFEGYQEQTDEL”, for which the “soluble on expression in E. coli” value is given as “soluble”.
The same measure for “TQLQLKDSMEKFGALYHSSSLGMLIVIEREIVDANHRALELLSYKKSDLLEQSLDTLCPTTADECRVDAMYRELQHGRNQFEAQMLDSHGETIDCLIEATLIQHNGHTALMLLLQDLS”: “not soluble”.
The same measure for “SLETKVAARDLSSLLSHCEAPVAALTVTAFKCKASACSVAPAPGSNTGLGALMSMAQAAQGLQTFPNIGDGLSNALTTALKTTGCFKVMAREDFEDLRREAEAAGITLKSASADYLVTGAITSLAVGAKTQSFGGGFVPLVGAVSRSTKSANISIDVRLVDVKASEVKASQTFDVSNERSSWGAGGAGWGGSGALFGAASSTQSPELDSVANESVIQAANYIVTQVAGSAAIPPVAAITK”: “soluble”; for “MSLSRFQFVADHLHAFEVKWLCAGVEVARSSFYAWLAGAEGRAARKAADEALAARIRMVHDEDNTYGAPRITAELNDSVPDGERVNHKRVARVMRDAGIAGYRRRRRVKTTTPDPAKQKVPDLLKRDFTAPAPNEKYVGDITYLPLATGSNLYMATVIDCFSGRVAGWAIAEHMRTELVEDALKAADALRGSLAGAVFHSDHGSQYTSTDFASLCEKLGVTQSMGGVGSSADNALAESFNASLKREVLQDRSHWPDSATCRRQVFRWLVRYNLRRRHSRCRYSSPVSYERSHAPATLPEAAEGHHHHHH”: “not soluble”.
As for “MGSSHHHHHHSSGLVPRGSHMKMSFRWYGKKDPVTLEEIKAIPGMQGIVTAVYDVPVGQAWPLENILELKKMVEEAGLEITVIESIPVHEDIKQGKPNRDALIENYKTSIRNVGAAGIPVVCYNFMPVFDWTRSDLHHPLPDGSTSLAFLKSDLAGVDPVADDLNLPGWDSSYSKEEMKAIIENYRQNISEEDLWANLEYFIKAILPTAEEAGVKMAIHPDDPPYGIFGLPRIITGQEAVERFLNLYDSEHNGITMCVGSYASDPKNDVLAMTEYALKRNRINFMHTRNVTAGAWGFQETAHLSQAGDIDMNAVVKLLVDYDWQGSLRPDHGRRIWGDQTKTPGYGLYDRALGATYFNGLYEANMRAAGKTPDFGIKAKTVGTKEG”, the “soluble on expression in E. coli” value is “soluble”.
“MGSDKIHHHHHHMTTDGQLAYQQTCDYPIEERQSEQQVIRQYLPLIKRIVSQMRSHCGVMLSLEDMEQIGMMALLESSRRYPGELDNGFISFAGQRIRGAILDELRRQDWRPRPVRQQAHELNDVVRRLSREMGREPSDLEVASALGLSAEDYRERLYSTQAESMKSLDELLLVGEHPVDRGNDVEQLMLKQTLIKVISKLNEREQLILSLYYHHELNLKEIAMALGLTETRICQLHKSAISQLKTILQR”: the “soluble on expression in E. coli” value is “not soluble”.
Turning to “MSLKSVIVPAPGKIEIREVETPVINAYQALVKTEMVALCNATDSKLIAGHFPGVDTYPLALGHENAGIVVAVGEKVRNFKVGDRAIGGLISDFGAQGINSGWGGFSEYVVVNDFEVLKEEGLATPEQGCWDSFEIQNSVPAHVQPEEAVISCTWREVLGAFKDFNLTPGKKVIVVGSGPVGLSFVKLGKLFGLGQIDIVDMLPAKLEVARRMGADNGYTPAEISTPEFIAAAGRSYDAVIDAVGLDVVVNSVLPLVKMGGDVCVYGVMTKNPTFDLSKAPYNFDLHMHQWPTRSEEKAAMTTLAQWIEEGTLSASDFITHRFKIEEIEEAFAAVKRGEVLKCVLTEGHHHHHH”, the “soluble on expression in E. coli” value is reported as “not soluble”.
The same measure for “MSPTSRPATGASLSAARRSREVADTVGGPVVDVLVVGLGATGAGAALDAAARGLGVVAVDAHDLAFGTSRWSSKLIHGGLRYLASGQLDVAHESAVERGVLMERTAPHLVRAQPFVLPLTPLVSRGQGALAWAGFRAGDTLRLAARTARATLPAPRRLSAVETRHLAPALRSDRLRGGLLSWDGRLADDARLVTALARTAAARGARILTRVRALELTGSGARVRDETTGEEGVIRARAVVNASGVWAGDLVDGIRIRPSRGTHLVLRSDRLGPLPAGLHVPIPGETNRFVLVLPQDDGRVYVGLTDEPVDGDVPDVPEVPETDVGFLLDVLGSVLDVPVHREDVVGAFAGLRPLLDTAPSDRPGAAPRTADVSRRHAVLTSSEGVITVVGGKLTTYRRMAEDAVDAAVAARGLAAGPSPTAALPLVGAAAPHTLAGVRAPRRLVRRYGTEAPAVQALASREPCLAERVLPGHPVTGAELVWALRHEGALDEADLLDRRTRVGLVPEDRAAALGAVRDLVGEVTADPRLEHHHHHH”: “not soluble”; for “VDEKALKHITEMGFSKEASRQALMDNGNNLEAALNVLLTSNKQKPVMGPP”: “soluble”.
As for “MGSDKIHHHHHHMSSLGLIRNLPRSRFVPLVVLHDTDGPVADLFRREGIDFVAAPVLNRLARAAPRNGAAVVNVMRTLPALVRFLRASNASIVHTNDGRTHLIWGLAARVAGAKHLWHHRGDATSFGLRRVAPWLPNRLVAVSKFASPRPGIFSAASKCSVVHSPFDVTKMAGFEREEARNNVLAAIRCAPETKLLGYVGTLVDRKRPILFVEAVAALKRLSPETKVVGLFFGNALNGLDEAAKSRAEALGVADCIHFMGFRYPGEPWIAGLDALLVTAVNEPLGRTLVEAMLLGTPVVAADSGGNPEVVEDGRTGMLVRADDPDEFARACLKLFSDAALRDRIVETARNEVRARFSFERHVHAITSVYEELTGGMAAMQRSARAG”, the “soluble on expression in E. coli” value is recorded as “not soluble”.
Take “MSAEAADREAVSGSRPCTPPQTSWFEFLLNPSLLEQHLHSPHPDPSPVQLIFQFLEQASKPSVNEQNQVQPPVDNRRNRTLKLMALKVAAHLRWDLNMLEKGLTIPVLNMLLNELLCVSHVPPGVKHVDLDLSSLPPTTAMAVVFYNRWAIRTIVLSSFPEKQTKPGPHQLNMMNMLQQEKEHTENILSVLREQATDSIMVLEGALSIKKDFYIHL”: the “soluble on expression in E. coli” value is recorded as “not soluble”.
The same measure for “MSLDVALAPPGPLASGGLRVTALGGISEIGRNMTIFEHLGRLLIIDCGVLFPGHDEPGVDLILPDLRHIEDRLDDIEALVLTHAHEDHIGAIPFLLKLRSDIPVVGSKFTLALVAAKCREHRIKPVFVEVVGGQSSRHGVFECEYFAVNHSIPDALTIAVYTGAGTVLHTGDIKLDQLPLDGRPTDLPGMSRLGDAGVDLFLCDSTNAEIPGVGPSESEVGPTLHRLIQGADGRVIVACFASNVDRVQQVIDAAVALGRRVSFVGRSMVRNMSIARDLGFLRVDDSHMIDIAAAEMMAPEQVVLITTGTQGEPMSALSRMSRGEHQSITLTSGDLVVLSSSLIPGNEEAVYGVIDALAKIGARVVTNAQARVHVSGHAYAGELLFLYNGVRPRQVMPVHGTEGHHHHHH”: “soluble”; for “MAVTKELLQMDLYALLGIEEKAADKEVKKAYRQKALSCHPDKNPDNPRAAELFHQLSQALEVLTDAAARAAYDKVRKAKKQAAERTQKLDEKRKKVKLDLEARERQAQAQESEEEEESRSTRTLEQEIERLREEGSRQLEEQQRLIREQIRQERDQRLRGKAENTEGQGTPKLKLKWKCKKEDESKGGYSKDVLLRLLQKYGEVLNLVLSSKKPGTAVVEFATVKAAELAVQNEVGLVDNPLKISWLEGQPQDAVGRSHSGLSKGSVLSERDYESLVMMRMRQAAERQQLIARMQQEDQEGPPT”: “soluble”.

The values are drawn from the DeepSol protein solubility set.
